assay: soluble on expression in E. coli; label from the status in PepcDB or PDB records

Sequence	soluble on expression in E. coli
SPRGLELLIAQTILQGFDAQYGRFLEVTSGAQQRFEQADWHAVQQAMKNRIHLYDHHVGLVVEQLRCITNGQSTDAEFLLRVKEHYTRLLPDYPRFEIAESFFNSVYCRLFDHRSLTPERLFIFSSQPERRFRTIPRPLAKDFHPDHGWESLLMRVISDLPLRLHWQNKSRDIHYIIRHLTETLGPENLSKSHLQVANELFYRNKAAWLVGKLITPSGTLPFLLPIHQTDDGELFIDTCLTTTAEASIVFGFARSYFMVYAPLPAALVEWLREILPGKTTAELYMAIGCQKHAKTESYREYLVYLQGCNEQFIEAPGIRGMVMLVFTLPGFDRVFKVIKDKFAPQKEMSAAHVRACYQLVKEHDRVGRMADTQEFENFVLEKRHISPALMELLLQEAAEKITDLGEQIVIRHLYIERRMVPLNIWLEQVEGQQLRDAIEEYGNAIRQLAAANIFPGDMLFKNFGVTRHGRVVFYDYDEICYMTEVNFRDIPPPRYPEDELASEPWYSVSPGDVFPEEFRHWLCADPRIGPLFEEMHADLFRADYWRALQNRIREGHVEDVYAYRRRQRFSVRYGEMLF	soluble
GPGSMKIGVVLGSGGHTSEMLRAITEIPLSYWLDTRPFYVVSATDPHSASLASQLEQQRFERRVVVYTIPRAREVGQSYLMSIITTIRATLACFRFVCTEKPDVLLTNGPGVCVPVIAAAVCVASCAPWWYGRPAIVYMESFTCVSHLSLTGSLLAPWLADVFTVHWRALERAVARRRRRGTLVYVGSETARVTDGAPHRLRSLAAEQEAYALVTVGSTKFSSLVQAVVQPGVCATLHQRFGIKRLYVQHGTAEVVAPPEATLLPALPMAAGADASHPTQQWSCGGLLVEAFPYRPCLDAVIRGATLVITHAGAGTILEGLQAQRPLVVVPNRQLMSDHQLDLAEALANGGFLFCVQVAELAERLPLLDLTTLRPHGGMDAAQLQEALRLVLTGHSASGERAKAD	not soluble
MSLEKLLPDPDPTFERPYTLCLSLDDLLIHSEWTREHGWRIAKRPGVDYFIRYLSQYYELVLFTTTPYATGEPVMRKLDPFRLILWPLYREATKFEDGEIVKDLSYLNRDLSKVIIIDTKAKHVRNQPDNAIILDPWKGDKDDKNLVNLIPFLEYIHTMQYSDVRKVIKSFDGKDIPTEGHHHHHH	soluble
KTVINVVLQEDTQILDEVVVTALGLKREQKALGYAVTEVKGDDLKAANTISPVAALQGKVAGVEIRQSDGGMFGATKIQIRGASTLKGNNQPIYVIDGVILDNSTSGNTTMDWDAGNNNANDYGNELKNLNPDDFETVSVLKGAAATALYGSRGLNGAVVITTKSGKG	not soluble
MGANGASGDHKQLKEIRIGIQQSLSPLLIAKEKGWFEDAFEKEGIKVKWVEFQSGPPQFEGLAADKLDFSQVGNSPVIAGQAAGIDFKEIGLSQDGLKANGILVNQNSGIQDVKGLKGKKIAVAKGSSGFDFLYKALDQVGLSANDVTIIQLQPDEAASAFENGSVDAWSIWEPYLSLETMKHGAKILVNGESTDLYSPGFTLVRTKFSEEHPDEVVRFLKVFNKAVVWQKEHLDEAADLYSDIKDLDKKVVENVLKNTEPLNEIISDDIVKAQQETADFQFRTKAIDKKIDVKDVVDNTFIKKALEEHSSGGDQLEHHHHHH	soluble
MVSHHNLTTGATLINEQWLLTTAKNLFLNHSENATAKDIAPTLTLYVGKKQLVEIEKVVLHPNYSQVDIGLIKLKQKVSVNERVMPICLPSKDYAEVGRVGYVSGWGRNANFKFTDHLKYVMLPVADQDQCIRHYEGSTVPEKKTPKSPVGVQPILNEHTFCAGMSKYQEDTCYGDAGSAFAVHDLEEDTWYATGILSFDKSCAVAEYGVYVKVTSIQDWVQKTIAEN	not soluble
MPVAATNSETAMQQVLDNLGSLPSATGAAELDLIFLRGIMESPIVRSLAKAHERLEETKLEAVRDNNLELVQEILRDLAQLAEQSSTAAELAHILQEPHFQSLLETHDSVASKTYETPPPSPGLDPTFSNQPVPPDAVRMVGIRKTAGEHLGVTFRVEGGELVIARILHGGMVAQQGLLHVGDIIKEVNGQPVGSDPRALQELLRNASGSVILKILPSYQEPHLPRQVFVKCHFDYDPARDSLIPCKEAGLRFNAGDLLQIVNQDDANWWQACHVEGGSAGLIPSQLLEEKRKAFVKRDLELTPNSGTLCGSLSGKKKKRMMYLTTKNAEFDRHELLIYEEVARMPPFRRKTLVLIGAQGVGRRSLKNKLIMWDPDRYGTTVPYTSRRPKDSEREGQGYSFVSRGEMEADVRAGRYLEHGEYEGNLYGTRIDSIRGVVAAGKVCVLDVNPQAVKVLRTAEFVPYVVFIEAPDFETLRAMNRAALESGISTKQLTEADLRRTVEESSRIQRGYGHYFDLCLVNSNLERTFRELQTAMEKLRTEPQWVPVSWVY	soluble
MKFLNQHELTKLLALLDLDHGLDWDYFLLLIAKTGLRFGEALGVTPMDFDMAKLTLTINKTWDYKSATGSFAETKNTASVRKVPLDWQVAMQFAAQIKSLPQDKPIFVTDGQRVYNETANDILERKCKRASIPVISIHGLRHTHASLLLYAGVSVGSVARRLGHANMSTTQKTYLHILEHHHHHH	soluble
MAHHHHHHMSTEPTPRVIVFDLDGTLWRPEMYELWGGGAPFMLSKDNSSIAIDKKGTEVRLIGQTRELLQMLSTTEEWRNTHLAISSTCDEPRWAMELLQLFRFRDKRGNDVPMLSLFGDLVEIYKANKKNQHRTILKKVKEHDPTVRGDFSDFIFFDNQQDNIGHVSSIGVTSIYCPNGMVGGVFERGLKEWRDKEKKRAL	soluble
MIGCLCIHGFTGSPEEVAPLADYLRERTDWMIETPTLPGHGSELRLKGITYDQWIAAAEQAFLALHHRCSVVYVIGFSMGGVIAVYLAEKYPVAKLVLLSAAFYYVNPRQLWRDIREMFANGWKGAREHPLFLRYRNKMMATPFSAVREFRKLVRDVRPRLPRVAAPALIVQGEKDGIVPLKSAYYLYEQIGSAEKKLLLLPNSFHHVCHSIDRHVLFAEVETFLRAAHAHHCKSPHNMV	not soluble
MKKKIAEYEVGEQVDIFLLIKTATKGIASNGKPFLTVILQDPSGDIEAKLWDVSPEVEKQYVAETIVKVAGDILNYKGRIQLRVKQIRVANENEVTDISDFVEKAPVKKEDMVEKITQYIFEMRNPNIQRLTRHLLNKHQNEFLDYPAATKNHHEFVSGLAYHVVSMLDLAKAISNLYPSLDKDLLYAGVILHDLGKVIELSGPISTTYTLEGNLLGHISIMVNEIGKAADELQIDAEEVLILQHIVLSHHGKAEWGSPKPPLVKEAEILHYIDNLDAKMNMMDRALGRTKPGEYTERVFALDNRSFYKPSFHN	not soluble
MAYTLHKMTKKLHKQKFFQFAAFIQKKFDSPLFKAIRKRSCHWSDISNHNDNYDLTVASYNVHKCIGVDKVFNPTRIVQVITELQVDILALQEADKRFGERIGLIDLQLLKAETGLIPVPLNTMSPHGHGWHGNALFLRKGHVCDTLQITLPGIEPRGAVIADLEMEVGPIRVIAAHFGLLRHSRNQQTKMLLSLLQKRPLMPTLLIGDFNEWRIGKGSSLNHFAPYFDSTVGTVPSFPSRFPLLALDRILAFPHQLVIRIENHHSPLARIASDHLPIKAYLDLSHAMATLKK	not soluble
SQSAEKFQGSHLLCPGCGHGIIVREVLNAVDGPIVLGNSTGCLEVCSAVYPHTSWDVPWIHIGFENGSTAISGVEAMYKALTNKGRYQGQKPKFVAFGGDGASYDIGLQFISGCMERGHDMTYICLDNENYANTGGQRSGSTPLGASTSTTPAGSVSFGKKEKKKDIVNIMASHGVPYVAQLSPNKWKDMNKKIKTALDTEGPCFINALSPCTTEWKFESNKTIELADMAVDSLMFPLFEIFNGRELKITYRPRNIIPVRDYLGAQKRFKHLFKKENEHIIEELQKDVNERWEYLQRREEAK	not soluble
MGSDKIHHHHHHMEKAVENFEDLSKEYINGYIERARKAQREFECYTQEQVDKIVKIVGKVVYYNAEYLAKLAVEETGMGVYEDKVAKNKSKAKVIYNNLKDKKSVGIIDIDRETGITKVAKPVGVVAAITPCTNPIVTPMSNAMFALKGRNAIIITPHHKAIGCSTKTVEMINEELEKIGAPENLIQILDQQSRENTRNLISSADVVIATGGMGMVKAAYSSGKPALGVGAGNVQCIIDRDVDIKEAVPKIIAGRIFDNGIICSGEQSVIVAEEMFDKIMDEFKNNKGFIVRDKVQKEAFRNAMFVNKSMNKDAVGQSVHTIAKIAGVEIPEDTKIIVIEADGPGEEDIIAKEKMCPVISAYKYKSFEEGVAIAKANLNVEGKGHSVSIHSNTVKNIEYAGENIEVSRFVINQCCATSAGGSFFNGLAPTNTLGCGSWGNNSISENLDYKHLINISRIAYYMPENEVPTDEELWG	not soluble
MSLSLYQSVRAVANARGGETEWIDWRATAEAAKQARDQGALTLDDAERRAYATDVRDARSRLRTVGGLEFDIPQTIEVQNRHHWIDANIKTFERMLDPIDIATLIDDTNALNGPSGYATRMVNTGSMAAALAFLSGNVLGQYDPQLLSQTTDTIETNENNHELYFVHPNIVDVAAELDVEYPRFRRWIAFHEVAHAAEFGAAPWLRTHIEDRIESGLEALTGGRLDRSAFSDVDIVMTAVEGYAELLMDRAFDKEYADLRAKLDARRGGGGPVAQLFRRLLGLGVKERQYERGAQFFETIADQRGVKAAATVWEDPRYLPDESELDNPQYWIDRVNEGHHHHHH	not soluble
MAAPPSPGRTADQADQVCTFLFKKPGRKGAAGLRKRPACDPEHGESSSSGDEGDTVAQPPRVAPRPRGLHSWQKAAHGDRRGEEAAPESLDVVYRSTRSAKPVGPEDMGATADFEQDTEKEHHTPTILKCSQRVQEALRGREHDHIYRGIHSYLRYLKPKDTSMGNSSSGMARKGPIRAPGHLRATVRWDYQPDICKDYKETGFCGFGDSCKFLHDRSDYKLGWEIERELEEGRYCICEDENHEVGSEEEEIPFRCFICRQAFQNPVVTKCRHYFCESCALEHFRATPRCYICDQPTGGIFNPAKELMAKLQKLQAAEGKKR	soluble
MSSQVSTSRGLPSPSKLGTFESPHTWQMSGPTGQAEAGSSDDQDIRLLSVSWNQDFGCFAAGTSNGFRIFNCDPFKETFRRDLKSGGFGIVEMLFRCNILALVGGGSNAHYPPNKVMIWDDHRSHCIGEFAFRSDVRAVKLGKDYIVIVLERKIYVYNFTDLKLLHQIETQSNPKGLCCLSHHSNTSVLACPGVHQGHVRVEHFGLKVTRMISAHDSHISCMALTMDGLLLATASMKGTLIRIFNTMDGTRLQEVRRGLDKADIYSIALSPNVQWLAVSSDKGTVHIFSLRVRVAGEDASNEQRSLEGPRMDHQNSSSSIDPLIQTNTGSNASSSLSFMKGILPKYFSSEWSFAQFHLPEVTRYIVAFGAQNTVMMVGLDGSFYRCSFDQVNGGQMLQKEYFRFIKADLTPLRTSAP	not soluble
MTEQSVKNTPQHETQSKPKQKTVKLIIKRQDTSDSKPYEETFEIPYRENLNVIACLMEIRRNPVNIKGEKTTPVVWDMNCLEEVCGACSMVINGRARQSCSAIVDQLEQPIRLEPMNTFPVIRDLQVDRSRMFDNLKRMKAWIPIDGTYDLGPGPRMPEKKRQTAYELSKCMTCGVCLEVCPNVTENNKFVGAQAISQVRLFNLHPTGSMTKDERLNALMGTGGLQQCGNSQNCVNACPKGIPLTTSIAAMNRETTFHMFKSFFGSDHEVE	not soluble
MSLDKVLVGYWHNWKSTGKDGYKGGSSADFNLSSTQEGYNVINVSFMKTPEGQTLPTFKPYNKTDTEFRAEISKLNAEGKSVLIALGGADAHIELKKSQESDFVNEIIRLVDTYGFDGLDIDLEQAAIEAADNQTVIPSALKKVKDHYRKDGKNFMITMAPEFPYLTSSGKYAPYINNLDSYYDFINPQYYNQGGDGFWDSDLNMWISQSNDEKKEDFLYGLTQRLVTGTDGFIKIPASKFVIGLPSNNDAAATGYVKDPNAVKNALNRLKASGNEIKGLMTWSVNWDAGTNSNGEKYNNTFVNTYAPMLFNNEGIITITTDPNSSSVDKLAAALEHHHHHH	soluble
